# Results from the supplement of paper PMC10567573.
# B1: PRIM1 (parent)
# chain: CCSSADICPKCWTLMTMAIRIIDR
# Variants of: B1
# Experiment: protein stability index of a GFP-peptide fusion (GPS, HEK-293T) (PSI 1-6); higher = more stable
# Conditions: c terminus: a fixed tail appended
# 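Note: lentivirally expressed fusions sorted by FACS into six bins by GFP to DsRed ratio, PSI derived from sequencing read proportions per bin multiplied by bin number.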
row,Variant,protein stability index
1,ICSSADICPKCWTLMTMAIRIIDR [C1I],1.53
2,KCSSADICPKCWTLMTMAIRIIDR [C1K],1.61
3,LCSSADICPKCWTLMTMAIRIIDR [C1L],2
4,MCSSADICPKCWTLMTMAIRIIDR [C1M],2.5
5,NCSSADICPKCWTLMTMAIRIIDR [C1N],1.49
6,PCSSADICPKCWTLMTMAIRIIDR [C1P],1.78
7,QCSSADICPKCWTLMTMAIRIIDR [C1Q],1.85
8,RCSSADICPKCWTLMTMAIRIIDR [C1R],2.01
9,SCSSADICPKCWTLMTMAIRIIDR [C1S],1.79
10,TCSSADICPKCWTLMTMAIRIIDR [C1T],2.12
11,VCSSADICPKCWTLMTMAIRIIDR [C1V],2.87
12,WCSSADICPKCWTLMTMAIRIIDR [C1W],2.25
13,YCSSADICPKCWTLMTMAIRIIDR [C1Y],1.37
14,CASSADICPKCWTLMTMAIRIIDR [C2A],2.49
15,CDSSADICPKCWTLMTMAIRIIDR [C2D],2.41
16,CESSADICPKCWTLMTMAIRIIDR [C2E],1.83
17,CFSSADICPKCWTLMTMAIRIIDR [C2F],1.83
18,CGSSADICPKCWTLMTMAIRIIDR [C2G],1.6
19,CHSSADICPKCWTLMTMAIRIIDR [C2H],1.69
20,CISSADICPKCWTLMTMAIRIIDR [C2I],1.74
21,CKSSADICPKCWTLMTMAIRIIDR [C2K],1.45
22,CLSSADICPKCWTLMTMAIRIIDR [C2L],2.55
23,CMSSADICPKCWTLMTMAIRIIDR [C2M],2.48
24,CNSSADICPKCWTLMTMAIRIIDR [C2N],2.03

row,Variant,protein stability index
1,CPSSADICPKCWTLMTMAIRIIDR [C2P],2.21
2,CQSSADICPKCWTLMTMAIRIIDR [C2Q],1.9
3,CRSSADICPKCWTLMTMAIRIIDR [C2R],1.91
4,CSSSADICPKCWTLMTMAIRIIDR [C2S],1.96
5,CVSSADICPKCWTLMTMAIRIIDR [C2V],2.06
6,CWSSADICPKCWTLMTMAIRIIDR [C2W],1.78
7,CYSSADICPKCWTLMTMAIRIIDR [C2Y],1.96
8,CCASADICPKCWTLMTMAIRIIDR [S3A],1.82
9,CCCSADICPKCWTLMTMAIRIIDR [S3C],1.65
10,CCDSADICPKCWTLMTMAIRIIDR [S3D],1.56
11,CCESADICPKCWTLMTMAIRIIDR [S3E],2.04
12,CCFSADICPKCWTLMTMAIRIIDR [S3F],1.51
13,CCHSADICPKCWTLMTMAIRIIDR [S3H],2.16
14,CCISADICPKCWTLMTMAIRIIDR [S3I],1.87
15,CCKSADICPKCWTLMTMAIRIIDR [S3K],1.45
16,CCLSADICPKCWTLMTMAIRIIDR [S3L],2.32
17,CCMSADICPKCWTLMTMAIRIIDR [S3M],2.7
18,CCNSADICPKCWTLMTMAIRIIDR [S3N],1.95
19,CCPSADICPKCWTLMTMAIRIIDR [S3P],1.28
20,CCQSADICPKCWTLMTMAIRIIDR [S3Q],2.08
21,CCRSADICPKCWTLMTMAIRIIDR [S3R],1.9
22,CCTSADICPKCWTLMTMAIRIIDR [S3T],1.53
23,CCWSADICPKCWTLMTMAIRIIDR [S3W],1.42
24,CCYSADICPKCWTLMTMAIRIIDR [S3Y],2.43

row,Variant,protein stability index
1,CCSAADICPKCWTLMTMAIRIIDR [S4A],1.87
2,CCSCADICPKCWTLMTMAIRIIDR [S4C],2.72
3,CCSDADICPKCWTLMTMAIRIIDR [S4D],1.48
4,CCSEADICPKCWTLMTMAIRIIDR [S4E],2.11
5,CCSFADICPKCWTLMTMAIRIIDR [S4F],2.39
6,CCSGADICPKCWTLMTMAIRIIDR [S4G],1.85
7,CCSHADICPKCWTLMTMAIRIIDR [S4H],1.72
8,CCSIADICPKCWTLMTMAIRIIDR [S4I],1.79
9,CCSKADICPKCWTLMTMAIRIIDR [S4K],2.2
10,CCSLADICPKCWTLMTMAIRIIDR [S4L],2.24
11,CCSMADICPKCWTLMTMAIRIIDR [S4M],2.97
12,CCSNADICPKCWTLMTMAIRIIDR [S4N],1.72
13,CCSPADICPKCWTLMTMAIRIIDR [S4P],1.67
14,CCSQADICPKCWTLMTMAIRIIDR [S4Q],2.66
15,CCSRADICPKCWTLMTMAIRIIDR [S4R],2.42
16,CCSTADICPKCWTLMTMAIRIIDR [S4T],1.63
17,CCSVADICPKCWTLMTMAIRIIDR [S4V],2.19
18,CCSWADICPKCWTLMTMAIRIIDR [S4W],1.51
19,CCSYADICPKCWTLMTMAIRIIDR [S4Y],1.91
20,CCSSCDICPKCWTLMTMAIRIIDR [A5C],2.01
21,CCSSDDICPKCWTLMTMAIRIIDR [A5D],1.41
22,CCSSFDICPKCWTLMTMAIRIIDR [A5F],2.5
23,CCSSGDICPKCWTLMTMAIRIIDR [A5G],1.7
24,CCSSHDICPKCWTLMTMAIRIIDR [A5H],1.71

row,Variant,protein stability index
1,CCSSIDICPKCWTLMTMAIRIIDR [A5I],1.33
2,CCSSKDICPKCWTLMTMAIRIIDR [A5K],1.93
3,CCSSLDICPKCWTLMTMAIRIIDR [A5L],1.15
4,CCSSMDICPKCWTLMTMAIRIIDR [A5M],1.79
5,CCSSNDICPKCWTLMTMAIRIIDR [A5N],1.54
6,CCSSPDICPKCWTLMTMAIRIIDR [A5P],1.62
7,CCSSQDICPKCWTLMTMAIRIIDR [A5Q],1.51
8,CCSSRDICPKCWTLMTMAIRIIDR [A5R],1.67
9,CCSSSDICPKCWTLMTMAIRIIDR [A5S],2.63
10,CCSSTDICPKCWTLMTMAIRIIDR [A5T],2.98
11,CCSSVDICPKCWTLMTMAIRIIDR [A5V],1.64
12,CCSSWDICPKCWTLMTMAIRIIDR [A5W],2.15
13,CCSSYDICPKCWTLMTMAIRIIDR [A5Y],3.67
14,CCSSAAICPKCWTLMTMAIRIIDR [D6A],1.7
15,CCSSACICPKCWTLMTMAIRIIDR [D6C],1.62
16,CCSSAEICPKCWTLMTMAIRIIDR [D6E],2.22
17,CCSSAFICPKCWTLMTMAIRIIDR [D6F],2.11
18,CCSSAGICPKCWTLMTMAIRIIDR [D6G],1.47
19,CCSSAHICPKCWTLMTMAIRIIDR [D6H],2.49
20,CCSSAIICPKCWTLMTMAIRIIDR [D6I],1.91
21,CCSSAKICPKCWTLMTMAIRIIDR [D6K],2.14
22,CCSSAMICPKCWTLMTMAIRIIDR [D6M],2.15
